In article PMC11615828:
Values belong to the substance of their own block, whether it stands above or below them.

Experiments:
EMTB‐YFP‐CIBN [1] = biological target: EMTB‐YFP‐CIBN (UniProt Q8GY61)
EMTB‐CFP‐FRB [2] = biological target: EMTB‐CFP‐FRB
EMTB‐YFP‐CIBN [3] = biological target: EMTB‐YFP‐CIBN (UniProt Q8GY61); remark: listed apart in the source
EMTB‐CFP‐FRB [4] = biological target: EMTB‐CFP‐FRB; remark: listed apart in the source

Substance: ACE2‐mNeon‐FKBP
internalisation of SARS-CoV2 spike‐Alexa Fluor 647 into ACE2-positive HeLa cells after 2 h, rapamycin 100 nM against DMSO (LifeAct‐CFP‐FRB): 89%

immobilisation of LAMP1-labelled lysosomes under blue light (half time on) (EMTB‐YFP‐CIBN [1]): 6.2 s | return of lysosome mobility after the end of blue light (half time off) (EMTB‐YFP‐CIBN [1]): 68.8 s
Substance: LAMP1‐mCh‐Cry2

motility of LAMP1-labelled lysosomes slowed after rapamycin (half time of the slowing) (EMTB‐CFP‐FRB [2]): 11 s
Substance: LAMP1‐mNeon‐FKBP

motility of post-Golgi vesicles halted after rapamycin 100 nM (half time) (EMTB‐CFP‐FRB [2]): 9 s
Substance: TGN38‐mNeon‐FKBP

immobilisation of VAMP2-labelled vesicles under blue light (half time on) (EMTB‐YFP‐CIBN [3]): 7 s | return of VAMP2 vesicle mobility after blue light (half time off) (EMTB‐YFP‐CIBN [3]): 68.1 s
Substance: mCh‐Cry2‐VAMP2

movement of IFT88 particles along axonemes in cilia of NIH3T3 cells after rapamycin 100 nM (CFP‐FRB‐MAP4m): 20 s
Substance: mNeon‐FKBP‐IFT88

motility of endosomes halted after rapamycin 100 nM (half time) (EMTB‐CFP‐FRB [2]): 11.8 s
Substance: mNeon‐FKBP‐Rab5b

motility of recycling endosomes halted after rapamycin 100 nM (half time) (EMTB‐CFP‐FRB [2]): 12.5 s
Substance: mNeon‐FKBP‐Rab11b

motility of exocytic vesicles halted after rapamycin 100 nM (half time) (EMTB‐CFP‐FRB [2]): 12.3 s
Substance: mNeon‐FKBP‐Rab37

immobilisation of VAMP2-labelled vesicles in COS7 cells after rapamycin 100 nM (half time) (EMTB‐CFP‐FRB [4]): 19.2 s | immobilisation of VAMP2-labelled vesicles in primary culture cortical neurons after rapamycin 100 nM (half time) (EMTB‐CFP‐FRB [4]): 13.6 s
Substance: mNeon‐FKBP‐VAMP2
